# In patent publication US20190351049A1 (Regeneron, published 2019):
# B1: H1M15289N (antibody, V domains shown)
# VH: QVQLQESGPGLVKPSETLSLTCTVSGGSISSYYWSWIRQPPGKGLEWIGYIYYSGSANYNPSLKSRVTISVDTSKNQFSLKLSSVTAADTAVYYCVRDRDLLLDHWGQGTLVTVSS
# VL: EIVMTQSPATLSVSPGKRATLSCRASQSVSSNLAWYQQKPGQAPRLLIYGASTRTTGFPARFSGSGSGTDFTLTISSLQSEDFAVYYCQQYNNWPYTFGQGTMLEIK
# B2: H2aM15279N (antibody, V domains shown)
# VH: EVQLLESGGGLVQTGGSLRLSCAASGFTFSNYAMSWVRQAPGKGLEWVSAISDRGGSIYYADSVKGRFTISRDNSKNTKYLQMDSLRAEDTAVYYCAQDRGFGVFDYWGQGTLVTVSS
# VL: DIQMTQSPSSLSASVGDRVTITCQASQDIGNYLNWFQQRPGKAPNLLIYGASNLETGVPSRFSGGGSGTDFTFTISSLQPEDIATYFCQQYDNLPFTFGPGTKVEIK
# B3: H1M15290N (antibody, V domains shown)
# VH: QVQLVQSGAEVKKPGSSVKVSCKASGGTFSTYAISWVRQAPGQGLEWMGGIIPFFGTANYAQKFQGRVTITTDESTSTAYMELSSLRSEDTAVYYCAREGTYYDSLTGYYTHYYRMDVWGQGTTVTVSS
# VL: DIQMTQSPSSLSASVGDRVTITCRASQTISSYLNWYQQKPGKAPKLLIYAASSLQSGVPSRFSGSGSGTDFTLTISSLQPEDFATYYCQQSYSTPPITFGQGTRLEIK
# B4: H2bM15292N (antibody, V domains shown)
# VH: QVQLVQSGAEVKKPGSSVKVSCKASGGTFNNYAISWVRQAPGQGLEWMGGIIPFFGTTNYAQKFQDRVTITSDDSTITAYMELSRLRSEDTAVYYCARDEPRRDGYNYYHYYYMDVWGQGTTVTVSS
# VL: DIQMTQSPSSLSASVGDRVTITCRASQSINSYLNWYQQKPGKAPNLLIYAASSLQSGVPSRFSGSGSGTDFTLTISSLHPEDFATYYCQQSYSTPPITFGQGTRLEIK
# B5: H2aM15287N (antibody, V domains shown)
# VH: QLQLQESGPGLVKPSETLSLTCTVSGGSISSGNYYWGWIRQPPGKGLEWFGTIYYSGSTYYNPSLKSRVTISVDTSKNQFSLKLSSVTAADTAVYYCARRAAVGHFDYWGQGTLVTVSS
# VL: DIQMTQSPSTLSASVGDRVTITCRASQSISTWLAWYQQKPGKAPKLLIYEASSLESGVPSRFSGSGFGTEFTLTISRLQPDDFATYFCQQYNTYWTFGQGTKVEIK
# B6: H1M15267N (antibody, V domains shown)
# VH: QVQLQESGPGLVKPSETLSLTCTVSGGSISSYYWSWIRQPPGKGLEWIGYIYYSGSPNYNPSLKSRVTISVDTSKNQFSLKLTSVTAADTAVYYCARSLNWGPPFDYWGQGTLVTVSS
# VL: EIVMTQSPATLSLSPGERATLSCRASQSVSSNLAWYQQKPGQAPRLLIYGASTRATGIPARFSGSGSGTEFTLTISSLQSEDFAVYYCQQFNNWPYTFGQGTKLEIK
# Molecular target: T1, MERS RBD-hFc (MERS-CoV (isolate EMC/2012))
# Assay: SPR Biacore, captured mAb, 25 C
Binder,Kd,koff,kon,t1/2
B1,0.21 nM,4.41e-05 s⁻¹,210000 M⁻¹ s⁻¹,4.37 h
B2,0.102 nM,8.91e-05 s⁻¹,870000 M⁻¹ s⁻¹,2.17 h
B3,0.438 nM,0.000211 s⁻¹,482000 M⁻¹ s⁻¹,0.917 h
B4,0.34 nM,0.000155 s⁻¹,457000 M⁻¹ s⁻¹,1.25 h
B5,6.98 nM,0.000442 s⁻¹,63300 M⁻¹ s⁻¹,0.433 h
B6,0.181 nM,0.000153 s⁻¹,843000 M⁻¹ s⁻¹,1.25 h

# Molecular target: T1, MERS RBD-hFc
# Assay: SPR Biacore, captured mAb, 37 C
Binder,Kd,koff,kon,t1/2
B1,0.275 nM,0.000126 s⁻¹,459000 M⁻¹ s⁻¹,1.53 h
B2,0.32 nM,0.000445 s⁻¹,1.39e+06 M⁻¹ s⁻¹,0.433 h
B3,1.48 nM,0.000984 s⁻¹,666000 M⁻¹ s⁻¹,0.2 h
B4,0.963 nM,0.000524 s⁻¹,544000 M⁻¹ s⁻¹,0.367 h
B5,10.9 nM,0.00189 s⁻¹,174000 M⁻¹ s⁻¹,0.1 h
B6,0.314 nM,0.000745 s⁻¹,2.37e+06 M⁻¹ s⁻¹,0.267 h

# Molecular target: T1, MERS RBD-hFc
# Assay: ELISA on coated MERS RBD-hFc, hybridoma supernatant 1:50, absorbance at 450 nm
row,Binder,ELISA Binding
1,B1,2.73
2,B2,2.18
3,B3,2.76
4,B4,2.78
5,B5,2.53
6,B6,2.62

# Molecular target: T1, MERS RBD-hFc
# Assay: SPR (Biacore), hybridoma supernatant antibody captured, MERS RBD-hFc as analyte
Binder,Kd,t½
B1,0.669 nM,≥ 1.92 h
B2,0.266 nM,1.6 h
B3,0.778 nM,1.34 h
B4,0.593 nM,1.13 h
B5,0.245 nM,≥ 1.92 h
B6,0.328 nM,1.57 h
